# Measured values as given in patent US20110172153A1 (GENERAL HOSPITAL, published 2011).
# Square brackets hold non-standard residues; d marks the D form. Ends that are not written are not given here. hArg = N=C(N)NCCCC[C@H](N)C(=O)O; Nle = CCCC[C@H](N)C(=O)O; Aib = CC(C)(N)C(=O)O
# T1: human parathyroid hormone receptor (PTHR) (human, UniProt Q03431 27-593)
# T1 sequence: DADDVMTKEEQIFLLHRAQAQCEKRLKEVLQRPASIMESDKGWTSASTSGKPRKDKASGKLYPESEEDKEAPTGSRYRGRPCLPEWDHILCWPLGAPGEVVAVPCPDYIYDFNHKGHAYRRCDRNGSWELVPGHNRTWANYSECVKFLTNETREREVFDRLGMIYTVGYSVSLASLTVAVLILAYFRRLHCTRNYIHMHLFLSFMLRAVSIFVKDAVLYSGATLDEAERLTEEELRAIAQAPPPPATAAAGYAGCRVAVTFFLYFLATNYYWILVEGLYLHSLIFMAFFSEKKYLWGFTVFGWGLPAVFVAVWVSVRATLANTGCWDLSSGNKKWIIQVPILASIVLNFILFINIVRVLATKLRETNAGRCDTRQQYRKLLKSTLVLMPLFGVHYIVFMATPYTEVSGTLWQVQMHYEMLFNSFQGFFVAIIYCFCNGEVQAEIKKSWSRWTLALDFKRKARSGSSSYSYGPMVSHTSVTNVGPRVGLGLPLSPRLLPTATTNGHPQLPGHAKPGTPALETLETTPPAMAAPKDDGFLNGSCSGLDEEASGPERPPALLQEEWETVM
# T2: rat parathyroid hormone receptor (PTHR) (rat, UniProt P25961 27-591)
# T2 sequence: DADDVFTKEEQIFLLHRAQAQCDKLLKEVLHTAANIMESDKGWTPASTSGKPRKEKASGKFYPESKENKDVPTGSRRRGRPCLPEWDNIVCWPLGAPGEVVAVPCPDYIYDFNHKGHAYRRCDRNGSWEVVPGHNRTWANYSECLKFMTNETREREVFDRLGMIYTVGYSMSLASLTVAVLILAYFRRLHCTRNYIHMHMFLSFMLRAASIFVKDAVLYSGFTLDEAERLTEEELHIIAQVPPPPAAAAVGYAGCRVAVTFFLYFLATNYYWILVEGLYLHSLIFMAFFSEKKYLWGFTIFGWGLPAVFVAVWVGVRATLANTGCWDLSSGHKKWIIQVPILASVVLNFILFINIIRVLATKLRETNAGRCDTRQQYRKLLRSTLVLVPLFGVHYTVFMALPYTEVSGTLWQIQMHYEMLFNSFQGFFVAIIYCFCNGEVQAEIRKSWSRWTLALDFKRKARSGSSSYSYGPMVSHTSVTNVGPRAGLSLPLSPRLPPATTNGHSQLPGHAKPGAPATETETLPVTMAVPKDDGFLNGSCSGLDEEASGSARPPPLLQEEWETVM
# Columns and labels:
# [1] = molecular target: T1, human parathyroid hormone receptor …; test: cell-based or functional assay
# [2] = molecular target: T1, human parathyroid hormone receptor …; test: cell-based or functional assay; remark: listed apart in the source
# [3] = molecular target: T1, human parathyroid hormone receptor …; test: ratio of R0 IC50 to RG IC50, hPTHR
# [4] = molecular target: T1, human parathyroid hormone receptor …; test: ratio of R0 IC50 to RG IC50, human PTH1 receptor
# [5] = molecular target: T1, human parathyroid hormone receptor …; test: competition radioligand binding, human PTH1 receptor R0
# Protocol: (§1) Binding Studies. Binding studies were performed using cell membranes as described (Dean et al., Mol Endocrinol 20(4):931-43 (2006)). […] Reactions contained a total membrane protein concentration of 20 to 100 μg/mL, and a total radioactivity concentration of approximately 150,000 cpm/ml. Unlabeled peptide ligands and/or GTPγS (Sigma-Aldrich Inc. St. Louis, Mo.) were added to the reactions as indicated. At the end of the reaction, bound and free radioligand were separated by vacuum filtration using a 96-well vacuum filter plate and vacuum filter apparatus (Multi-Screen system with Durapore HV, […] filters; Millipore Corp., Milford, Mass.); the air-dried filters were then detached from the plate and counted for gamma radioactivity using a gamma counter.
# (§2) To assess the capacities of various unlabeled peptide ligands to bind to the G protein-uncoupled and G protein-coupled PTHR conformations (R⁰ and RG, respectively), membranes were prepared from transiently transfected COS-7 cells and the following assay conditions.
# [6] = molecular target: T1, human parathyroid hormone receptor …; test: competition radioligand binding, human PTH1 receptor RG
# Protocol: as §1, §2
# [7] = molecular target: T2, rat parathyroid hormone receptor (PTHR); test: cell-based or functional assay
# [8] = molecular target: T1, human parathyroid hormone receptor …; test: competition vs 125I-PTH(1-34) + GTPgammaS, COS-7 membranes hPTHR (R0)
# Protocol: (§3) Radioligand dissociation. These studies were performed as bulk reactions in 15 mL round-bottom polystyrene snap-cap tubes (Falcon) (total reaction volume=5.0 ml). Membranes and radioligand were pre-incubated for 90 minutes to allow complex formation; the dissociation phase was then initiated by the addition of an excess of the unlabeled analog of the radioligand (5×10⁻⁷ M final concentration), with or without GTPγS (5×10⁻⁵ M). Immediately prior to this addition (t=0), and at successive time-points thereafter, 0.2 ml aliquots (30,000 cpm) were withdrawn and immediately processed by vacuum filtration, as described above. Non-specific binding was determined in parallel reaction tubes containing the unlabeled analog of the radioligand (5×10⁻⁷ M) in both the pre-incubation and dissociation phases. The specifically bound radioactivity at each time point was calculated as a percent of the radioactivity specifically bound at t=0. Equilibrium competition binding and GTPγS inhibition. […] Membranes, tracer radioligand, and various concentrations of unlabeled ligands and/or GTPγS were incubated in the wells for 90 minutes, following which, the reaction plates were processed by rapid vacuum filtration to separate bound from free radioligand, as described above. […] For both radioligands, the non-specific binding was determined in reactions containing a saturating concentration of the unlabeled analog of the radioligand. The specifically bound radioactivity was calculated as a percent of the radioactivity specifically bound in the absence of a competing ligand or GTPγS.
# [9] = molecular target: T1, human parathyroid hormone receptor …; test: competition vs 125I-[Aib1,3,M]PTH(1-15), COS-7 membranes hPTHR + GsND (RG)
# Protocol: as §3
# [10] = molecular target: T1, human parathyroid hormone receptor …; test: cell-based or functional assay; remark: listed apart in the source
# [11] = molecular target: T1, human parathyroid hormone receptor …; test: ratio of R0 IC50 to RG IC50, hPTHR; remark: listed apart in the source
# [12] = molecular target: T1, human parathyroid hormone receptor …; test: competition radioligand binding, human PIR R0
# Protocol: as §1, §2
# [13] = molecular target: T1, human parathyroid hormone receptor …; test: competition radioligand binding, human PIR RG
# Protocol: as §1, §2
# [14] = molecular target: T1, human parathyroid hormone receptor …; test: competition radioligand binding, hPTHR R0 conformation
# Protocol: as §1, §2
# [15] = molecular target: T1, human parathyroid hormone receptor …; test: competition radioligand binding, hPTHR RG conformation
# Protocol: as §1, §2
# [16] = molecular target: T1, human parathyroid hormone receptor …; test: screen, binding to human PIR R0 relative to parent PTHrP(1-28)NH; footnote not given
# [17] = molecular target: T1, human parathyroid hormone receptor …; test: screen, binding to human PIR RG relative to parent PTHrP(1-28)NH; footnote not given
binder,measurement,setting,value
"AVSEIQLXHNLGKHLASVERXQWLRKKLQDVHNY (Nle at 8 and 21; C-terminal amide, also called [Nle^8,21,Tyr^34]rat(r)PTH(1-34)NH2; control PTH(1-34) analog) [[Nle^8,21,Tyr^34]rPTH(1-34)NH2]","delayed cAMP response 60 minutes after wash-out, % of maximum, HKRK-B64 cells",[1],47%
same,"t1/2 of decay of the cAMP signaling response, HKRK-B7 cells",[1],~2 h
same,"IP in COS-7/hPTHR cells, EC50",[2],18 nM
same,"IP in COS-7/hPTHR cells, Emax",[2],2410 cpm/well
same,"cAMP in HKRK-B64 cells, EC50",[2],5.1 nM
same,"cAMP in HKRK-B64 cells, Emax",[2],55 picomole/well
same,R0:RG,[3],5
"AVAEIQLMHQRAKWLNSMRAVEWLRKKLQDVHNF-OH (Mc = A1,3,12,Q10,R11,W14,R19) [A20,Mc-PTH(1-34)OH]",R0/RG ratio,[4],80
same,IC50,[5],31.9 nM
same,IC50,[6],0.4 nM
"AVAEIQLMHQRAKWLNSMRRVEFLRKKLQDVHNF-OH (Mc = A1,3,12,Q10,R11,W14,R19) [F23,Mc-PTH(1-34)OH]",R0/RG ratio,[4],5
same,IC50,[5],1.2 nM
same,IC50,[6],0.23 nM
AVSEIQLMHNLGKHLASVERMQWLRKKLQDVHNF-NH2 (also called r(rat)PTH(1-34)NH2; rat-PTH(1-34)) [rPTH(1-34)NH2],"cAMP in ROS17/2.8 cells, EC50",[7],0.021 nM
same,R0:RG,[3],7
same,IC50,[8],2.3 nM
same,IC50,[9],0.34 nM
AVSEHQLMHNLGKHLASVERMQWLRKKLQDVHNF-NH2 [[His^5]rPTH(1-34)NH2],R0:RG,[3],138
same,IC50,[8],26 nM
same,IC50,[9],0.19 nM
"AVAEIQLMHNLGKHLNSMERVEALRKKLQDVHNF-OH (also called [A^1,A^3,A^23]-PTH(1-34)OH; [A1,3,23]-hPTH(1-34)) [[A1,3,23]-PTH(1-34)OH]","cAMP in HKRK-B7 cells, EC50",[10],1.93 nM
same,"cAMP in HKRK-B7 cells, Max",[10],66.6 pm/well
same,R0/RG ratio,[4],4290
same,IC50,[5],1840 nM
same,IC50,[6],0.43 nM
SVSEHQLMHNLGKHLNSMERVEWLRKKLQDVHNF-NH2 [[His^5]hPTH(1-34)NH2],"delayed cAMP response 60 minutes after wash-out, % of maximum, HKRK-B64 cells",[1],34%
same,R0:RG,[3],160
same,IC50,[8],122 nM
same,IC50,[9],0.76 nM
"[Aib]V[Aib]EIQL[Nle]HQ[hArg]AKWY-NH2 (N-terminus assumed; SMILES CCCC[C@H](NC(=O)[C@H](CC(C)C)NC(=O)[C@H](CCC(N)=O)NC(=O)[C@@H](NC(=O)[C@H](CCC(=O)O)NC(=O)C(C)(C)NC(=O)[C@@H](NC(=O)C(C)(C)N)C(C)C)[C@@H](C)CC)C(=O)N[C@@H](Cc1c[nH]cn1)C(=O)N[C@@H](CCC(N)=O)C(=O)N[C@@H](CCCCNC(=N)N)C(=O)N[C@@H](C)C(=O)N[C@@H](CCCCN)C(=O)N[C@@H](Cc1c[nH]c2ccccc12)C(=O)N[C@@H](Cc1ccc(O)cc1)C(N)=O, also called [Aib^1,3,M]rPTH(1-15)NH2; [Aib^1,3,M]PTH(1-15)) [[Aib^1,3,Nle^8,Gln^10,homoarginine^11,Ala^12,Trp^14,Tyr^15]rPTH(1-15)NH2]",R0:RG,[3],1400
same,IC50,[8],1030 nM
same,IC50,[9],0.74 nM
"AVSEHQLLHDKGKSIQDARRRAFLHKLI-NH2 [A18,22,K26-PTHrP(1-28)NH]",R0/RG selectivity,[11],18100
same,IC50,[12],1820 nM
same,IC50,[13],0.1 nM
same,IC50,[14],1820 nM
same,IC50,[15],0.1 nM
same,human PIR R0 (% parent),[16],178 % parent
same,human PIR RG (% parent),[17],193 % parent
"AVSEHQLLHDKGKSIQDERRRAFLHKLI-NH2 [E18,A22,K26-PTHrP(1-28)NH]",R0/RG selectivity,[11],38300
same,IC50,[12],9240 nM
same,IC50,[13],0.24 nM
same,IC50,[14],9240 nM
same,IC50,[15],0.24 nM
same,human PIR R0 (% parent),[16],68.8 % parent
same,human PIR RG (% parent),[17],145 % parent
"AVSEHQL[Nle]HNLGKHLASVER[Nle]QWLRKKLQDVHNY-NH2 (N-terminus assumed; SMILES CCCC[C@H](NC(=O)[C@H](CC(C)C)NC(=O)[C@H](CCC(N)=O)NC(=O)[C@H](Cc1c[nH]cn1)NC(=O)[C@H](CCC(=O)O)NC(=O)[C@H](CO)NC(=O)[C@@H](NC(=O)[C@H](C)N)C(C)C)C(=O)N[C@@H](Cc1c[nH]cn1)C(=O)N[C@@H](CC(N)=O)C(=O)N[C@@H](CC(C)C)C(=O)NCC(=O)N[C@@H](CCCCN)C(=O)N[C@@H](Cc1c[nH]cn1)C(=O)N[C@@H](CC(C)C)C(=O)N[C@@H](C)C(=O)N[C@@H](CO)C(=O)N[C@H](C(=O)N[C@@H](CCC(=O)O)C(=O)N[C@@H](CCCNC(=N)N)C(=O)N[C@@H](CCCC)C(=O)N[C@@H](CCC(N)=O)C(=O)N[C@@H](Cc1c[nH]c2ccccc12)C(=O)N[C@@H](CC(C)C)C(=O)N[C@@H](CCCNC(=N)N)C(=O)N[C@@H](CCCCN)C(=O)N[C@@H](CCCCN)C(=O)N[C@@H](CC(C)C)C(=O)N[C@@H](CCC(N)=O)C(=O)N[C@@H](CC(=O)O)C(=O)N[C@H](C(=O)N[C@@H](Cc1c[nH]cn1)C(=O)N[C@@H](CC(N)=O)C(=O)N[C@@H](Cc1ccc(O)cc1)C(N)=O)C(C)C)C(C)C, also called His^5-PTH(1-34); H^5-PTH(1-34)) [[His^5,Nle^8,21,Tyr^34]rPTH(1-34)NH2]","IP in COS-7/hPTHR cells, EC50",[2],30 nM
same,"IP in COS-7/hPTHR cells, Emax",[2],2230 cpm/well
same,"cAMP in HKRK-B64 cells, EC50",[2],2.7 nM
same,"cAMP in HKRK-B64 cells, Emax",[2],59 picomole/well
same,R0:RG,[3],753
same,IC50,[8],71 nM
same,IC50,[9],0.094 nM
